From US20260242478A1 (published 2026)

target: T1, Anti-CD28 Fab (SEQ ID NOs: 696, 697); experiment: phage ELISA; biotinylated anti-CD28 Fab on neutravidin plate, bound phage detected with anti-M13-HRP
T1 construct: In the phage ELISA the Fab was biotinylated and captured on neutravidin coated plates
T1 sequence (VH, as listed by the source, chain 1 of 2): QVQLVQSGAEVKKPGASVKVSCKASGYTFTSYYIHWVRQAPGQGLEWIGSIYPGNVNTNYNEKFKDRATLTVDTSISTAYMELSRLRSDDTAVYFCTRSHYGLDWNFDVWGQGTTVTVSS
T1 sequence (VL, as listed by the source, chain 2 of 2): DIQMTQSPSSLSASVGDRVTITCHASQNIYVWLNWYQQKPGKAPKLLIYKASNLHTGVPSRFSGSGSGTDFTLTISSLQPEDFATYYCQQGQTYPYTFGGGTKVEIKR
Description: (§1) Clonal phage were harvested as crude supematants and screened via standard ELISAs. […] Prior to the addition of clonal phage, wells were incubated with blocking buffer and CD28 antigen or blocking buffer alone. Without washing or aspirating, clonal phage supematants were then added to the wells and incubated for a short time. Wells were then washed followed by detection of bound phage using a horse radish conjugated anti-M13 antibody.

Binder	Phage binding ELISA, Anti-CD28 Fab signal
SCSAGAMYTWPTCL [Phage-1613]	1.31
LCAAGAAWEWPMCF [Phage-1614]	1.3
QCSAGATYAWPFCL [Phage-1615]	1.29
TCAAGVPYKWPPCL [Phage-1616]	1.29
SCAAGATYTWPFCL [Phage-1617]	1.29
RCAAVFSYTWPPCL [Phage-1618]	1.29

target: T2, Anti-CD28 Fab (SEQ ID NOs: 696, 697); experiment: phage binding ELISA on captured Fab; wells pre-incubated with CD28 antigen as competitor
T2 construct: In the phage ELISA the Fab was biotinylated and captured on neutravidin coated plates
T2 sequence (VH, as listed by the source, chain 1 of 2): as the sequence (VH, as listed by the source, chain 1 of 2) above
T2 sequence (VL, as listed by the source, chain 2 of 2): as the sequence (VL, as listed by the source, chain 2 of 2) above
Description: as §1

Binder	Anti-CD28 Fab signal in the presence of CD28
QCAAGATYPWPVCL [Phage-1647]	0.09
TCSAGATYTWPVCF [Phage-1648]	0.06
TCSAGAHYEWPKCL [Phage-1649]	0.07
TCSAGATYSWPLCF [Phage-1650]	0.09
TCAAGATYSWPSCF [Phage-1651]	0.07
TCAAGANYAWPVCL [Phage-1652]	0.13
TCAAGAHYEWPQCF [Phage-1653]	0.06
TCAAGATYNWPWCF [Phage-1654]	0.07
TCAAGATWTWPTCM [Phage-1655]	0.06
PCAAGAQWSWPMCL [Phage-1656]	0.09
SCAAGSTWAWPACL [Phage-1657]	0.07
SCAAGFHYEWPQCF [Phage-1658]	0.06

target: T3, Anti-CD28 Fab (SEQ ID NOs: 696, 697); experiment: phage ELISA; biotinylated anti-CD28 Fab captured on neutravidin plate, clonal phage detected with HRP anti-M13 antibody
T3 construct: In the phage ELISA the Fab was biotinylated and captured on neutravidin coated plates
T3 sequence (VH, as listed by the source, chain 1 of 2): as the sequence (VH, as listed by the source, chain 1 of 2) above
T3 sequence (VL, as listed by the source, chain 2 of 2): as the sequence (VL, as listed by the source, chain 2 of 2) above
Description: as §1

Binder	Phage binding ELISA, Anti-CD28 Fab signal
TCSAGATYKWPACF [Phage-1619]	1.29
LCAAGAYYPWPLCF [Phage-1620]	1.28
TCTAGFSYKWPTCL [Phage-1621]	1.28
NCSAGATWPWPMCF [Phage-1622]	1.27
SCSAGATYQWPYCF [Phage-1623]	1.26
SCAAGATYSWPACL [Phage-1624]	1.25
NCAAGAMYSWPTCL [Phage-1625]	1.25
RCAAGAMWTWPACF [Phage-1626]	1.25
TCAAGATYMWPVCL [Phage-1627]	1.24
SCAAGATWKWPECL [Phage-1628]	1.24
TCAAGATWLWPWCL [Phage-1629]	1.23
TCAAGAVWTWPICF [Phage-1630]	1.23
TCADGAFWQWPVCL [Phage-1631]	1.22
TCSAGASWGWPWCL [Phage-1632]	1.22

target: Anti-CD28 Fab (SEQ ID NOs: 696, 697); experiment: phage binding ELISA; biotinylated anti-CD28 Fab on neutravidin plate, clonal phage, anti-M13 HRP detection
Target sequence in this assay (VH, as listed by the source, chain 1 of 2): as the sequence (VH, as listed by the source, chain 1 of 2) above
Target sequence in this assay (VL, as listed by the source, chain 2 of 2): as the sequence (VL, as listed by the source, chain 2 of 2) above
Description: (§2) Clonal phage were harvested as crude supematants and screened via standard ELISAs. […] Prior to the addition of clonal phage, wells were incubated with blocking buffer and CD28 antigen or blocking buffer alone. Without washing or aspirating, clonal phage supematants were then added to the wells and incubated for a short time. Wells were then washed followed by detection of bound phage using a horse radish conjugated anti-M13 antibody. Clonal phage of interest were then sent for sequence analysis.

Binder	Anti-CD28 Fab signal (phage binding ELISA)
TCSAGATYSWPYCL (Tested as clonal phage supernatant) [Phage-1633 (peptide-92 library clone, SEQ ID NO: 1929)]	1.22
TCSAGATYSWPSCF (Tested as clonal phage supernatant) [Phage-1634 (peptide-92 library clone, SEQ ID NO: 1930)]	1.21
LCAAGATYPWPDCV (Tested as clonal phage supernatant) [Phage-1635 (peptide-92 library clone, SEQ ID NO: 1931)]	1.21
TCAAGANWPWPECL (Tested as clonal phage supernatant) [Phage-1636 (peptide-92 library clone, SEQ ID NO: 1932)]	1.21
LCEEFFHYSWPLCL (Tested as clonal phage supernatant) [Phage-1637 (peptide-92 library clone, SEQ ID NO: 1933)]	1.21
PCSDGVAYPWPYCV (Tested as clonal phage supernatant) [Phage-1638 (peptide-92 library clone, SEQ ID NO: 1934)]	1.2
SCAAGAHWSWPVCF (Tested as clonal phage supernatant) [Phage-1639 (peptide-92 library clone, SEQ ID NO: 1935)]	1.2
LCSAGAMYPWPVCL (Tested as clonal phage supernatant) [Phage-1640 (peptide-92 library clone, SEQ ID NO: 1936)]	1.19
SCSAGATWAWPQCF (Tested as clonal phage supernatant) [Phage-1641 (peptide-92 library clone, SEQ ID NO: 1937)]	1.19
SCSAVFSYRWPKCL (Tested as clonal phage supernatant) [Phage-1642 (peptide-92 library clone, SEQ ID NO: 1938)]	1.18
SCSAGAGWAWPMCF (Tested as clonal phage supernatant) [Phage-1643 (peptide-92 library clone, SEQ ID NO: 1939)]	1.16
SCAAGFDYGWPMCL (Tested as clonal phage supernatant) [Phage-1644 (peptide-92 library clone, SEQ ID NO: 1940)]	1.16
SCADGFNYVWPLCF (Tested as clonal phage supernatant) [Phage-1645 (peptide-92 library clone, SEQ ID NO: 1941)]	1.14
TCAAGANYSWPACL (Tested as clonal phage supernatant) [Phage-1646 (peptide-92 library clone, SEQ ID NO: 1942)]	1.14

target: T2, Anti-CD28 Fab (SEQ ID NOs: 696, 697); experiment: phage binding ELISA; biotinylated Fab on neutravidin plate, clonal phage supernatant, anti-M13 HRP detection
Description: as §2

Binder	Anti-CD28 Fab (SEQ ID NOs: 696, 697) signal
QCAAGATYPWPVCL [Phage-1647]	1.13
TCSAGATYTWPVCF [Phage-1648]	1.13
TCSAGAHYEWPKCL [Phage-1649]	1.12
TCSAGATYSWPLCF [Phage-1650]	1.12
TCAAGATYSWPSCF [Phage-1651]	1.1
TCAAGANYAWPVCL [Phage-1652]	1.09
TCAAGAHYEWPQCF [Phage-1653]	1.08
TCAAGATYNWPWCF [Phage-1654]	1.07
TCAAGATWTWPTCM [Phage-1655]	1.07
PCAAGAQWSWPMCL [Phage-1656]	1.07
SCAAGSTWAWPACL [Phage-1657]	1.07
SCAAGFHYEWPQCF [Phage-1658]	1.06

target: T3, Anti-CD28 Fab (SEQ ID NOs: 696, 697); experiment: phage ELISA on captured anti-CD28 Fab; wells pre-incubated with CD28 antigen as competitor;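 also: clonal phage from crude supernatants added to wells pretreated with blocking buffer with or without CD28, bound phage read by ELISA with HRP-conjugated anti-M13 antibody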
Description: as §2

Binder	Phage binding ELISA, Anti-CD28 Fab signal in the presence of CD28
TCSAGATYKWPACF [Phage-1619]	0.05
LCAAGAYYPWPLCF [Phage-1620]	0.06
TCTAGFSYKWPTCL [Phage-1621]	0.09
NCSAGATWPWPMCF [Phage-1622]	0.06
SCSAGATYQWPYCF [Phage-1623]	0.06
SCAAGATYSWPACL [Phage-1624]	0.07
NCAAGAMYSWPTCL [Phage-1625]	0.07
RCAAGAMWTWPACF [Phage-1626]	0.06
TCAAGATYMWPVCL [Phage-1627]	0.07
SCAAGATWKWPECL [Phage-1628]	0.07
TCAAGATWLWPWCL [Phage-1629]	0.07
TCAAGAVWTWPICF [Phage-1630]	0.05
TCADGAFWQWPVCL [Phage-1631]	0.07
TCSAGASWGWPWCL [Phage-1632]	0.07

target: T1, Anti-CD28 Fab (SEQ ID NOs: 696, 697); experiment: as above
Description: as §2

Binder	Phage binding ELISA, Anti-CD28 Fab signal in the presence of CD28
SCSAGAMYTWPTCL [Phage-1613]	0.08
LCAAGAAWEWPMCF [Phage-1614]	0.06
QCSAGATYAWPFCL [Phage-1615]	0.08
TCAAGVPYKWPPCL [Phage-1616]	0.06
SCAAGATYTWPFCL [Phage-1617]	0.07
RCAAVFSYTWPPCL [Phage-1618]	0.07

target: Anti-CD28 Fab (SEQ ID NOs: 696, 697); experiment: phage binding ELISA on captured anti-CD28 Fab, wells pre-incubated with CD28 antigen as competitor
Target sequence in this assay (VH, as listed by the source, chain 1 of 2): as the sequence (VH, as listed by the source, chain 1 of 2) above
Target sequence in this assay (VL, as listed by the source, chain 2 of 2): as the sequence (VL, as listed by the source, chain 2 of 2) above
Description: as §2

Binder	Anti-CD28 Fab signal in the presence of CD28 (phage binding ELISA)
TCSAGATYSWPYCL (Tested as clonal phage supernatant) [Phage-1633 (peptide-92 library clone, SEQ ID NO: 1929)]	0.07
TCSAGATYSWPSCF (Tested as clonal phage supernatant) [Phage-1634 (peptide-92 library clone, SEQ ID NO: 1930)]	0.09
LCAAGATYPWPDCV (Tested as clonal phage supernatant) [Phage-1635 (peptide-92 library clone, SEQ ID NO: 1931)]	0.05
TCAAGANWPWPECL (Tested as clonal phage supernatant) [Phage-1636 (peptide-92 library clone, SEQ ID NO: 1932)]	0.08
LCEEFFHYSWPLCL (Tested as clonal phage supernatant) [Phage-1637 (peptide-92 library clone, SEQ ID NO: 1933)]	0.06
PCSDGVAYPWPYCV (Tested as clonal phage supernatant) [Phage-1638 (peptide-92 library clone, SEQ ID NO: 1934)]	0.06
SCAAGAHWSWPVCF (Tested as clonal phage supernatant) [Phage-1639 (peptide-92 library clone, SEQ ID NO: 1935)]	0.08
LCSAGAMYPWPVCL (Tested as clonal phage supernatant) [Phage-1640 (peptide-92 library clone, SEQ ID NO: 1936)]	0.08
SCSAGATWAWPQCF (Tested as clonal phage supernatant) [Phage-1641 (peptide-92 library clone, SEQ ID NO: 1937)]	0.08
SCSAVFSYRWPKCL (Tested as clonal phage supernatant) [Phage-1642 (peptide-92 library clone, SEQ ID NO: 1938)]	0.06
SCSAGAGWAWPMCF (Tested as clonal phage supernatant) [Phage-1643 (peptide-92 library clone, SEQ ID NO: 1939)]	0.08
SCAAGFDYGWPMCL (Tested as clonal phage supernatant) [Phage-1644 (peptide-92 library clone, SEQ ID NO: 1940)]	0.06
SCADGFNYVWPLCF (Tested as clonal phage supernatant) [Phage-1645 (peptide-92 library clone, SEQ ID NO: 1941)]	0.08
TCAAGANYSWPACL (Tested as clonal phage supernatant) [Phage-1646 (peptide-92 library clone, SEQ ID NO: 1942)]	0.08
